# Data from patent US20070212363A1 (US Dept. of Health and Human Services, published 2007).
# Experiments:
# Test in all cases: cell-based or functional assay
# [1] = molecular target: T1, HIV-1 JR-FL envelope glycoprotein (Env) (HIV-1 strain JR-FL)
# [2] = molecular target: HIV-1 AD8 envelope glycoprotein (Env) (HIV-1 strain AD8)
# [3] = molecular target: HIV-1 IIIB envelope glycoprotein (Env) (HIV-1 strain IIIB)
# [4] = molecular target: T1, HIV-1 JR-FL envelope glycoprotein (Env); remark: listed apart in the source
# [5] = molecular target: HIV-1 AD8 envelope glycoprotein (Env) (HIV-1 strain AD8); remark: listed apart in the source
# [6] = molecular target: HIV-1 IIIB envelope glycoprotein (Env) (HIV-1 strain IIIB); remark: listed apart in the source
binder,measurement,setting,value
scFv m9 (scFv) scFv: VLTQSPGTLSLSAGERATLSCRASQSVSSGSLAWYQQKPGQAPRLLIYGASTRATGIPDRFSGSGSGTDFTLTIGRLEPEDLAVYYCQQYGTSPYTFGQGTKLEIKRTGGGGSGGGGSGGGGSVQLLEQSGAEVKKPGSSVQVSCKAFGGTFSMYGFNWVRQAPGHGLEWMGGIIPIFGTTNYAQKFRGRVTFTADQATSTAYMELTNLRSDDTAVYYCARDFGPDWEGGDSYDGSGRGFFDFWGQGTLVNVSS,"percentage of maximal infection, U87.CD4.CCR5.CXCR4 cells, 100 µg/mL antibody",[1],20%
same,"percentage of maximal infection, U87.CD4.CCR5.CXCR4 cells, 100 µg/mL antibody",[2],6.1%
same,"percentage of maximal infection, U87.CD4.CCR5.CXCR4 cells, 100 µg/mL antibody",[3],12%
same,Neutralizing activity (percentage) at 100 µg/mL,[4],90%
same,Neutralizing activity (percentage) at 100 µg/mL,[5],100%
same,Neutralizing activity (percentage) at 100 µg/mL,[6],100%
